Test results as given in PMC4484057, “Daple is a novel non-receptor GEF required for trimeric G protein activation in Wnt signaling” (eLife, 2015).
Residue numbers refer to the chain shown, from its start. In names and notes the source's numbering stands.

T1: GST-Daple-CT (human, UniProt Q9P219-1 1650-2028)
T1 construct: Daple (CCDC88C), human, C-terminal region; pGEX-4T construct; also called GST-Daple-CT WT; source: E. coli BL21 (DE3), purified (glutathione-Sepharose 4B)
T1 sequence (looked up): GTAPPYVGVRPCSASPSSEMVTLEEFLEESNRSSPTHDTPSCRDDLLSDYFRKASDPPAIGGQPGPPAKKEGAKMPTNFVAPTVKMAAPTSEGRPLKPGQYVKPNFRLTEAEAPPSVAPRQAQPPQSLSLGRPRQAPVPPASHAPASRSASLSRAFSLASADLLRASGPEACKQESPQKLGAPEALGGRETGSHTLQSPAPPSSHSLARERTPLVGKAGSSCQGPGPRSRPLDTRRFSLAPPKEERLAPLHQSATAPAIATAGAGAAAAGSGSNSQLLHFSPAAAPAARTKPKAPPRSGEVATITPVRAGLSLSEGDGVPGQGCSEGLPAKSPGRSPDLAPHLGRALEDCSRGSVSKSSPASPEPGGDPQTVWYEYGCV

B1: His-Daple-CT (aa 1650–2028) (domain or fragment, human, UniProt Q9P219-1 1650-2028, looked up)
chain: T1 sequence (looked up)
notes: Cloned from myc-Daple pcDNA 3.1 into pET28b between NdeI/EcoRI; also called His-Daple-CT WT; Daple-CT-WT; source: E. coli BL21 (DE3), purified (HisPur Cobalt Resin)
B2: GST-Gαi3 K248M (natural protein, rat, UniProt P08753 1-354, looked up)
chain: MGCTLSAEDKAAVERSKMIDRNLREDGEKAAKEVKLLLLGAGESGKSTIVKQMKIIHEDGYSEDECKQYKVVVYSNTIQSIIAIIRAMGRLKIDFGEAARADDARQLFVLAGSAEEGVMTSELAGVIKRLWRDGGVQACFSRSREYQLNDSASYYLNDLDRISQTNYIPTQQDVLRTRVKTTGIVETHFTFKELYFKMFDVGGQRSERKKWIHCFEGVTAIIFCVALSDYDLVLAEDEEMNRMHESMMLFDSICNNKWFTDTSIILFLNKKDLFEEKIKRSPLTICYPEYTGSNTYEEAAAYIQCQFEDLNRRKDTKEVYTHFTCATDTKNVQFVFDAVTDVIIKNNLKECGLY
notes: Gαi3, rat, K248M; source: E. coli BL21 (DE3), purified (glutathione-Sepharose 4B)
B3: GST-Gαi3 W258F (natural protein, rat, UniProt P08753 1-354, looked up)
chain: B2 chain with M248K, W258F
notes: Gαi3, rat, W258F; source: E. coli BL21 (DE3), purified (glutathione-Sepharose 4B)
B4: GST-Gαi2 (natural protein, rat, UniProt P04897 1-355, looked up)
chain: MGCTVSAEDKAAAERSKMIDKNLREDGEKAAREVKLLLLGAGESGKSTIVKQMKIIHEDGYSEEECRQYRAVVYSNTIQSIMAIVKAMGNLQIDFADPQRADDARQLFALSCAAEEQGMLPEDLSGVIRRLWADHGVQACFGRSREYQLNDSAAYYLNDLERIAQSDYIPTQQDVLRTRVKTTGIVETHFTFKDLHFKMFDVGGQRSERKKWIHCFEGVTAIIFCVALSAYDLVLAEDEEMNRMHESMKLFDSICNNKWFTDTSIILFLNKKDLFEEKITQSPLTICFPEYTGANKYDEAASYIQSKFEDLNKRKDTKEIYTHFTCATDTKNVQFVFDAVTDVIIKNNLKDCGLF
notes: Gαi2, rat, in pGEX-4T-1; also called GST-fused Gαi2; source: E. coli BL21 (DE3), purified (glutathione-Sepharose 4B)
B5: His-Gαi3 (natural protein, rat, UniProt P08753 1-354, looked up)
chain: B2 chain with M248K
notes: also called His-Gαi3-GDP; recombinant His-Gαi3; source: E. coli BL21 (DE3), purified (HisPur Cobalt Resin)
B6: GST-GIV-CT (aa 1671–1755) (domain or fragment, UniProt Q3V6T2 1671-1755, looked up)
chain: IKTGSPGSEVVTLQQFLEESNKLTSVQIKSSSQENLLDEVMKSLSVSSDFLGKDKPVSCGLARSVSGKTPGDFYDRRTTKPEFLR
notes: GIV (CCDC88A, Girdin), aa 1671–1755, holds the GBA motif; also called GST-GIV CT 1671–1755 aa; source: E. coli BL21 (DE3), purified (glutathione-Sepharose 4B)

Tests used:
[1] = target: B5; test: cell-based or functional assay
[2] = target: T2, GST-Gαi3 (rat, UniProt P08753 1-354); test: pull-down; Gβγ displacement: GST-Gαi3·Gβγ preformed on glutathione-agarose beads (∼0.4 µM GST-Gαi3), 0.05–1 µM His-Daple-CT, 5 hr at 4°C, GDP; bound Gβγ by immunoblot fitted to a single-site competition curve; conditions: both partners purified
T2 construct: Gαi3, rat, in pGEX-4T-1; Loaded with GDP, GDP + AlF4- or GTPγS as the assay says; also called GST-Gαi3 WT; source: E. coli BL21 (DE3), purified (glutathione-Sepharose 4B)

[3] = target: B1; test: pull-down; GST-Gα protein (5 µg) preloaded with GDP (inactive) on glutathione beads; purified His-Daple-CT (3 µg); 4 hr at 4°C; 50 mM Tris-HCl pH 7.4, 100 mM NaCl, 0.4% NP-40, 10 mM MgCl2, 5 mM EDTA, 30 µM GDP, 2 mM DTT; immunoblot; conditions: both partners purified
[4] = target: T1, GST-Daple-CT; test: pull-down; GST-Daple-CT or GST-GIV-CT immobilised on glutathione-agarose beads; 0.01–3 µM purified His-Gαi3 (GDP-loaded); band intensities of immunoblots fitted to a single-site binding hyperbola; four independent experiments; conditions: both partners purified
[5] = target: B5; test: as above; conditions: both partners purified

Chain of His-Gαi3 (P08753 whole entry, the tested form may be a part): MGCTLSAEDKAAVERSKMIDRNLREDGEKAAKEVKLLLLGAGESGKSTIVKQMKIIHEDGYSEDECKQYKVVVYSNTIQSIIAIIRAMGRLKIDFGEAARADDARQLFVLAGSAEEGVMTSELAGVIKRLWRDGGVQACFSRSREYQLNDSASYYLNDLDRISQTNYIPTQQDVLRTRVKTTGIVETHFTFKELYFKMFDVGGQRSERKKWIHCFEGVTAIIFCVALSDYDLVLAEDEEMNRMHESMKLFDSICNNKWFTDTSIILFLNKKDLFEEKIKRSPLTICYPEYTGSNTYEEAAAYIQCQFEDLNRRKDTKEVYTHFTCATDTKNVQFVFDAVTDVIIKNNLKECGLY

Binder: B1
steady-state GTPase activity of His-Gαi3 with 2 µM His-Daple-CT, over the basal activity [1]: ~3 fold | IC50 [2]: 160 nM

Binder: B2
binding result [3]: binds

Binder: B3
binding result [3]: binds

Binder: B4
binding result [3]: binds

Binder: B5
Kd [4]: 110 nM

Binder: B6
Kd [5]: 240 nM
